B1: Azoarcus group I ribozyme (parent)
chain: GUGCCUUGCGCCGGGAAACCACGCAAGGGAUGGUGUCAAAUUCGGCGAAACCUAAGCGCCCGCCCGGGCGUAUGGCAACGCCGAGCCAAGCUUCGGCGCCUGCGCCGAUGAAGGUGUAGAGACUAGACGGCACCCACCUAAGGCAAACGCUAUGGUGAAGGCAUAGUCCAGGGAGUGGCGAAAGUCACACAAACCGG

Variants of: B1
Assay: reverse-splicing fitness (ratio to wild type); higher = more active; in vitro selection; Mg2+ level not given
Summary of the method: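 An in vitro group I ribozyme library with randomized positions was T7-transcribed and gel-purified. In triplicate, 10 pmol RNA in EPPS pH 7.5 was reacted with 50 pmoles of a 30-nt RNA substrate for 1 h at 37 °C across several added MgCl2 levels (1–48 mM), then stopped with EDTA. Products were reverse transcribed from a substrate-complementary primer, PCR-amplified and sequenced (HiSeq 4000). Fitness is a variant's read proportion after selection over that before, normalised to wild type.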

Point of comparison: GUGCCUUGCGCCGGGAAACCACGCAAGGGAUGGUGUCAAAUUCGGCGAAACCUAAGCGCCCGCCCGGGCGUAUGGCAACGCGGAGCCAAGCUUCGGCGCCUGCGCCGAUGUAGGUGUAGAGACUAGACGGCACCCACCUAAGGCAAACGUUAUGGUGAAGGCAUAGUCAAGGGAGUGGCGAAAGUCACACAAACCGG, reverse-splicing fitness 0.0106. Against it:
- GUGCCUUGCGCCGGGAAACCACGCAAGGGAUGGUGUCAAAUUCGGCGAAACCUAAGCGCCCGCCCGGGCGUAUGGCAACGCGGAGCCAAGCUUCGGCGCCUGCGCCGAUGUAGGUGUAGAGACUAGACGGCACCCACCUAAGGCAAACGGUAUGGUGAAGGCAUAGUCUAGGGAGUGGCGAAAGUCACACAAACCGG — lower, 0.0102
- GUGCCUUGCGCCGGGAAACCACGCAAGGGAUGGUGUCAAAUUCGGCGAAACCUAAGCGCCCGCCCGGGCGUAUGGCAACGCGGAGCCAAGCUUCGGCGCCUGCGCCGAUGUAGGUGUAGAGACUAGACGGCACCCACCUAAGGCAAACGGUAUGGUGAAGGCAUAGUCGAGGGAGUGGCGAAAGUCACACAAACCGG — lower, 0.00744
- GUGCCUUGCGCCGGGAAACCACGCAAGGGAUGGUGUCAAAUUCGGCGAAACCUAAGCGCCCGCCCGGGCGUAUGGCAACGCGGAGCCAAGCUUCGGCGCCUGCGCCGAUGUAGGUGUAGAGACUAGACGGCACCCACCUAAGGCAAACGGUAUGGUGAAGGCAUAGUCAAGGGAGUGGCGAAAGUCACACAAACCGG — lower, 0.0104
- GUGCCUUGCGCCGGGAAACCACGCAAGGGAUGGUGUCAAAUUCGGCGAAACCUAAGCGCCCGCCCGGGCGUAUGGCAACGCGGAGCCAAGCUUCGGCGCCUGCGCCGAUGUAGGUGUAGAGACUAGACGGCACCCACCUAAGGCAAACGUUAUGGUGAAGGCAUAGUCGAGGGAGUGGCGAAAGUCACACAAACCGG — lower, 0.00914
- GUGCCUUGCGCCGGGAAACCACGCAAGGGAUGGUGUCAAAUUCGGCGAAACCUAAGCGCCCGCCCGGGCGUAUGGCAACGCGGAGCCAAGCUUCGGCGCCUGCGCCGAUGUAGGUGUAGAGACUAGACGGCACCCACCUAAGGCAAACGGUAUGGUGAAGGCAUAGUCCAGGGAGUGGCGAAAGUCACACAAACCGG — higher, 0.0227
- GUGCCUUGCGCCGGGAAACCACGCAAGGGAUGGUGUCAAAUUCGGCGAAACCUAAGCGCCCGCCCGGGCGUAUGGCAACGCGGAGCCAAGCUUCGGCGCCUGCGCCGAUGUAGGUGUAGAGACUAGACGGCACCCACCUAAGGCAAACGUUAUGGUGAAGGCAUAGUCCAGGGAGUGGCGAAAGUCACACAAACCGG — higher, 0.192
- GUGCCUUGCGCCGGGAAACCACGCAAGGGAUGGUGUCAAAUUCGGCGAAACCUAAGCGCCCGCCCGGGCGUAUGGCAACGCGGAGCCAAGCUUCGGCGCCUGCGCCGAUGUAGGUGUAGAGACUAGACGGCACCCACCUAAGGCAAACGAUAUGGUGAAGGCAUAGUCUAGGGAGUGGCGAAAGUCACACAAACCGG — higher, 0.0113
- GUGCCUUGCGCCGGGAAACCACGCAAGGGAUGGUGUCAAAUUCGGCGAAACCUAAGCGCCCGCCCGGGCGUAUGGCAACGCGGAGCCAAGCUUCGGCGCCUGCGCCGAUGUAGGUGUAGAGACUAGACGGCACCCACCUAAGGCAAACGUUAUGGUGAAGGCAUAGUCGAGGGAGAGGCGAAAGUCACACAAACCGG — higher, 0.0149
- GUGCCUUGCGCCGGGAAACCACGCAAGGGAUGGUGUCAAAUUCGGCGAAACCUAAGCGCCCGCCCGGGCGUAUGGCAACGCGGAGCCAAGCUUCGGCGCCUGCGCCGAUGUAGGUGUAGAGACUAGACGGCACCCACCUAAGGCAAACGGUAUGGUGAAGGCAUAGUCGAGGGAGCGGCGAAAGUCACACAAACCGG — lower, 0.00587
- GUGCCUUGCGCCGGGAAACCACGCAAGGGAUGGUGUCAAAUUCGGCGAAACCUAAGCGCCCGCCCGGGCGUAUGGCAACGCGGAGCCAAGCUUCGGCGCCUGCGCCGAUGUAGGUGUAGAGACUAGACGGCACCCACCUAAGGCAAACGGUAUGGUGAAGGCAUAGUCGAGGGAGGGGCGAAAGUCACACAAACCGG — lower, 0.00662
- GUGCCUUGCGCCGGGAAACCACGCAAGGGAUGGUGUCAAAUUCGGCGAAACCUAAGCGCCCGCCCGGGCGUAUGGCAACGCGGAGCCAAGCUUCGGCGCCUGCGCCGAUGUAGGUGUAGAGACUAGACGGCACCCACCUAAGGCAAACGGUAUGGUGAAGGCAUAGUCGAGGGAGAGGCGAAAGUCACACAAACCGG — lower, 0.0074
- GUGCCUUGCGCCGGGAAACCACGCAAGGGAUGGUGUCAAAUUCGGCGAAACCUAAGCGCCCGCCCGGGCGUAUGGCAACGCGGAGCCAAGCUUCGGCGCCUGCGCCGAUGUAGGUGUAGAGACUAGACGGCACCCACCUAAGGCAAACGGUAUGGUGAAGGCAUAGUCCAGGGAGCGGCGAAAGUCACACAAACCGG — higher, 0.0207
- GUGCCUUGCGCCGGGAAACCACGCAAGGGAUGGUGUCAAAUUCGGCGAAACCUAAGCGCCCGCCCGGGCGUAUGGCAACGCGGAGCCAAGCUUCGGCGCCUGCGCCGAUGUAGGUGUAGAGACUAGACGGCACCCACCUAAGGCAAACGGUAUGGUGAAGGCAUAGUCCAGGGAGGGGCGAAAGUCACACAAACCGG — lower, 0.0043
- GUGCCUUGCGCCGGGAAACCACGCAAGGGAUGGUGUCAAAUUCGGCGAAACCUAAGCGCCCGCCCGGGCGUAUGGCAACGCGGAGCCAAGCUUCGGCGCCUGCGCCGAUGUAGGUGUAGAGACUAGACGGCACCCACCUAAGGCAAACGGUAUGGUGAAGGCAUAGUCCAGGGAGAGGCGAAAGUCACACAAACCGG — lower, 0.01

Source: the RNAGym collection of RNA variant scans (doi:10.1093/molbev/msab373)
